The subject of data set [1] is colon cancer cells (SW620, HCT116). Nature of the data set: Annexin-V/PI apoptosis assay. The format is cell-based, human. Here is the method:
Cells were seeded in 24-well plate ([…] cells per well) overnight and then treated with 20 μg/mL mEpAb2-6, hEpAb2-6 or MT201, or […] LGK974 (MedChemExpress) or the combination for 24 hrs. Cell pellets were collected, and an apoptosis assay was performed using an Annexin-V/PI apoptosis kit (BD Biosciences). Results were read by flow cytometry analysis percentage apoptotic cells was calculated.

A further data set concerns EpCAM. Nature of the data set: Antibody binding to EpCAM wild-type, deletion and point mutants in HEK293T cells (immunofluorescence, flow cytometry, cellular ELISA). Further details: species or system human. The note with it: mutations at EpCAM positions Y32 (EGF-I domain) or Y95 (EGF-II domain); HEK293T cells. Here is the method: FIGS. 18A to 18G. […] HEK293T cells were transfected with full length or EGF like-domain deletion mutant EpCAM-V5. Antibody binding was assessed by (FIG. 8A) Western blotting, (FIG. 8B) flow cytometry, and (FIG. 8C) immunofluorescence. (FIG. 8D) EpCAM mutants were constructed with amino acid substitutions in the EGF-I (Y32A) and EGF-II (L94A, Y95A, or D96A) domains. EpCAM wild-type and mutant proteins were expressed in HEK293T cells. Binding of MT201, EpAb2-6 and EpAb23-1 to EpCAM wild-type and mutants were evaluated by (FIG. 8E) immunofluorescence, (FIG. 8F) flow cytometry, and (FIG. 8G) cellular ELISA. All data are presented as mean±SEM. *, p<0.05; **, p<0.01.
Here, we wanted to determine whether the antibody binds to EpCAM at both EGF-like domains of EpEX (FIG. 18A, FIG. 18B, FIG. 18C). To confirm that EpAb2-6 recognizes the LYD motif in EpCAM, we constructed cDNA sequences encoding the first (aa 27-59; EGF-I domain) and second (aa 66-135; EGF-II/TY domain) EGF-like repeats of EpCAM. PCR-based site-directed mutagenesis was then used to introduce mutations into each domain (FIG. 18D). The reactivity of EpAb2-6 antibody toward these EpCAM mutants was evaluated by immunofluorescence (FIG. 18E), flow cytometry (FIG. 18F), and cellular ELISA (FIG. 18G).
A general note: Flow cytometry measures light scatter and fluorescence of single cells or particles in a stream.

In data set [2] the test system is TACE and presenilin-2 (PS2). Nature of the data set: Phosphorylation of ADAM17 (TACE) and Presenilin2 (western blot). The note with it: HCT116 cells; EpEX, Wnt3A for 8 h. The format is cell-based, human. How it is done:
For western blotting, cells were extracted using radioimmunoprecipitation assay (RIPA) buffer [(0.01 M sodium phosphate, pH 7.2), 150 mM NaCl, 2 mM EDTA, 50 mM NaF, 1% Nonidet P-40, 1% sodium deoxycholate, and 0.1% SDS)] containing phosphatase inhibitor (Roche) and protease inhibitor (Roche) cocktail. Equal amounts of protein were separated by SDS-PAGE and then transferred to PVDF membranes. The membranes were blocked with 3% BSA in TBST (Blocking solution) and incubated with necessary primary antibodies in the blocking solution overnight at 4° C. Membranes were then incubated with HRP-conjugated secondary antibodies in the blocking solution for 1 h at room temperature, and protein expression were detected. Antibodies used: anti-α-tubulin (Sigma), anti-EpCAM (abeam), anti-Active β-Catenin (Millipore), anti-total β-Catenin (abeam), anti-Frizzled 6 (CST), anti-Frizzled 7 (Santa Cruz Biotech), anti-LRP5 (abcam), anti-Phospho-LRP5 (abcam), anti-Phospho-LRP6 (CST), anti-LRP6 (CST) and anti-EpEX antibody EpAb3-5 (Produced in house), anti-ADAM17 (abcam), anti-phopho-ADAM17 (abcam), anti-Presenilin2 (abcam), anti-phospho-Presenilin2 (S327) (abcam), anti-phospho-Presenilin2 (S330) (abcam) and anti-Axin2 (CST).
To study the kinase activity of GSK3 and CK1, 10^6 cells were seeded overnight and treated with GSK3 inhibitor BIO (Sigma) or CK1 inhibitor PF-670462 (selleckchem) for 8 h. […]

For the next data set, the system named is γ-secretase. Nature of the data set: γ-Secretase activity (luciferase reporter). In kind it is cell-based, human. The note with it: HCT116 and HT29 cells; 250 ng/mL EpEX-His or 100 ng/mL Wnt3A for 8 h, or combination. Here is the method: The γ-secretase activity was measured using the protocol described by Liao et al (2004) (Liao et al., 2004). In brief, cells were transiently transfected with the control plasmid and tetracycline-inducible γ-secretase plasmid harboring luciferase (Liao et al., 2004) (the plasmids were generous gifts from Dr. Yung-Feng Liao, ICOB, Academia Sinica). Cells were treated with 250 ng/mL EpEX-His or 100 ng/mL Wnt3A (R&D Systems) for 8 h. Further, cells were lysed using passive lysis buffer and subjected to the luciferase assay.

Another data set deals with T1, recombinant LRP5 (Homo sapiens, UniProt O75197).
T1 construct: purchased Proteintech
T1 sequence (O75197 32-1615): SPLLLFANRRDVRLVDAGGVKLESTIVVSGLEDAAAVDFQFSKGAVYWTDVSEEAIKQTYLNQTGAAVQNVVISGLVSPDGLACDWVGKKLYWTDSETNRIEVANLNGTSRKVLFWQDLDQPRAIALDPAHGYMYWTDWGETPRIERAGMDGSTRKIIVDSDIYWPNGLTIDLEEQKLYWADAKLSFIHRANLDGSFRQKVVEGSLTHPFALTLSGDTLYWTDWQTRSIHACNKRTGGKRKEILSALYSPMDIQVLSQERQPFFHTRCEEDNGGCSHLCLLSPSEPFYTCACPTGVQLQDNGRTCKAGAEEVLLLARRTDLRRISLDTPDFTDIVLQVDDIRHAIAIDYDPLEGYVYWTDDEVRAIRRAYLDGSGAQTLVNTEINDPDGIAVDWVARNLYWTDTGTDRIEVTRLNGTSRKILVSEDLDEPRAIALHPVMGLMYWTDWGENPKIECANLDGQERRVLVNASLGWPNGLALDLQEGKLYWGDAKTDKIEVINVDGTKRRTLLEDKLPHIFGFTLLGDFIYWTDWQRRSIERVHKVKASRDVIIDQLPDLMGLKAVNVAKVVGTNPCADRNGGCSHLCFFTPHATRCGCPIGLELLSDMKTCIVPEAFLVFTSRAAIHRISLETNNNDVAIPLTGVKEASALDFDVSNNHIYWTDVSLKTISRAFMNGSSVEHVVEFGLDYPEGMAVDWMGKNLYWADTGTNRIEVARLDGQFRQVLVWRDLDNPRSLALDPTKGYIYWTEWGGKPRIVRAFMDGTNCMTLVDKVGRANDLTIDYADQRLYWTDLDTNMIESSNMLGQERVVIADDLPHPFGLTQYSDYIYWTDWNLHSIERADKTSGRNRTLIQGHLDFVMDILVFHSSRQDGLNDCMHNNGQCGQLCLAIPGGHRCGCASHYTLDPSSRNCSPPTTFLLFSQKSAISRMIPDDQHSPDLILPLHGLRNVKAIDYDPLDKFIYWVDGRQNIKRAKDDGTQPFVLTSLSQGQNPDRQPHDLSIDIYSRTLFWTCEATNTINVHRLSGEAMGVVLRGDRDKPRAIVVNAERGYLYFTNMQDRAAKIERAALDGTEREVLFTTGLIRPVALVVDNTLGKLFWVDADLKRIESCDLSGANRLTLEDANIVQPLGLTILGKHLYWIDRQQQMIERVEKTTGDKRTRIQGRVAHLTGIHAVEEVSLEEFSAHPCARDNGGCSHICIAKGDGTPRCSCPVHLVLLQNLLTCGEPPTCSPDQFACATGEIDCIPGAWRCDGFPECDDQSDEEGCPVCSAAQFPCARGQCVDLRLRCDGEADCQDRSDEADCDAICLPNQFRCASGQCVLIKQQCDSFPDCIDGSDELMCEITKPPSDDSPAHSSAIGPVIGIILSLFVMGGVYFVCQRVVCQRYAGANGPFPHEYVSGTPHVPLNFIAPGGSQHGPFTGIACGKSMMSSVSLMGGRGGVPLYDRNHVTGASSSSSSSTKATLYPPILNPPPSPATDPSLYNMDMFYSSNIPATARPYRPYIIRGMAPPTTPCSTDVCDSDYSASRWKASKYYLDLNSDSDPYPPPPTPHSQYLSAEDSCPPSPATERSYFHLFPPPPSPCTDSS
In words: ELISA of EpEX binding to Wnt receptor-coated plates (LRP5). How it is done:
For ELISA, wells (at least 6 wells per single protein) were coated with recombinant FZD6 (Proteintech), recombinant FZD7 (Proteintech), recombinant LRP5 (Proteintech), recombinant LRP6 (Proteintech) overnight at 4° C. The wells were then blocked with 1% BSA and treated with EpEX-his (Produced in house by Expi293 Expression System) for 2 hours. Otherwise, EpEX-His was incubated with EpAb2-6 overnight and the complex was used to treat the protein-coated plates for 2 hours. Further anti-His antibody (abeam) was used and TMB was performed to record optical density at 450 nm.
A general note: ELISA stands for enzyme-linked immunosorbent assay.

The test system of a further data set is Axin2. In words: Wnt-target Axin2 expression (western blot, qPCR). In kind it is cell-based, human. The note with it: HT29 and HCT116 cells; EpEX, Wnt3A or combination; protein and mRNA. Here is the method:
For western blotting, cells were extracted using radioimmunoprecipitation assay (RIPA) buffer [(0.01 M sodium phosphate, pH 7.2), 150 mM NaCl, 2 mM EDTA, 50 mM NaF, 1% Nonidet P-40, 1% sodium deoxycholate, and 0.1% SDS)] containing phosphatase inhibitor (Roche) and protease inhibitor (Roche) cocktail. Equal amounts of protein were separated by SDS-PAGE and then transferred to PVDF membranes. The membranes were blocked with 3% BSA in TBST (Blocking solution) and incubated with necessary primary antibodies in the blocking solution overnight at 4° C. Membranes were then incubated with HRP-conjugated secondary antibodies in the blocking solution for 1 h at room temperature, and protein expression were detected. […]
Total RNA was extracted using TRI reagent and 5 μg of the total RNA was further reverse-transcribed using oligo (dT) primer with reverse transcriptase. Quantitative real time RT-PCR (qPCR) was performed on cDNA using the Light Cycler 480 SYBR Green-I Master kit and the LightCycler480 System. […]
For orientation: Immunoblotting shows a protein as a band on a membrane.

With “MT201: adecatumumab, a human anti-EpCAM antibody that was subjected to clinical trials [reference compound]”, the induction of apoptosis result in data set [1] (HCT116 cells, 20 μg/mL hEpAb2-6, mEpAb2-6 or MT201 for 24 hrs) is “does not have such activity”. Also, the “antibody binding to EpCAM mutants” value with EpCAM is on record as “did not affect MT201 binding”.

B1: EpEX: extracellular domain of EpCAM, produced in house by Expi293 Expression System (protein)
chain: QEECVCENYKLAVNCFVNNNRQCQCTSVGAQNTVICSKLAAKCLVMKAEMNGSKLGRRAKPEGALQNNDGLYDPDCDESGLFKAKQCNGTSMCWCVNTAGVRRTDKDTEITCSERVRTYWIIIELKHKAREKPYDSKSLRTALQKEITTRYQLDPKFITSILYENNVITIDLVQNSSQKTQNDVDIADVAYYFEKDVKGESLFHSKKMDLTVNGEQLDLDPGQTLIYYVDEKAPEFSMQGLKAGVIAVIVVVVIAVVAGIVVLVISRKKRMAKYEKAEIKEMGEMHRELNA
B1: the “phosphorylation of TACE and presenilin-2 (PS2)” value in data set [2] was “increases the phosphorylation”. The γ-secretase activity entry in the data set with γ-secretase is “enhanced”. The “EpEX binding to LRP5” value with recombinant LRP5 (EpEX-His alone, 2 hours, optical density at 450 nm) is recorded as “bind with all receptor proteins”. For the same molecule, the Axin2 expression result in the data set with Axin2 was “increased Axin2 expression”.

B2: Wnt3A: recombinant Wnt3A (R & D systems) (protein, UniProt P56704 19-352, looked up)
Protein Wnt-3a: SYPIWWSLAVGPQYSSLGSQPILCASIPGLVPKQLRFCRNYVEIMPSVAEGIKIGIQECQHQFRGRRWNCTTVHDSLAIFGPVLDKATRESAFVHAIASAGVAFAVTRSCAEGTAAICGCSSRHQGSPGKGWKWGGCSEDIEFGGMVSREFADARENRPDARSAMNRHNNEAGRQAIASHMHLKCKCHGLSGSCEVKTCWWSQPDFRAIGDFLKDKYDSASEMVVEKHRESRGWVETLRPRYTYFKVPTERDLVYYEASPNFCEPNPETGSFGTRDRTCNVSSHGIDGCDLLCCGRGHNARAERRREKCRCVFHWCCYVSCQECTRVYDVHTCK
As to B2, the “phosphorylation of TACE and presenilin-2 (PS2)” value in data set [2] is “increases the phosphorylation”. Moreover, in the data set with γ-secretase, the γ-secretase activity result is on record as “enhanced”. Besides, the Axin2 expression entry in the data set with Axin2 is reported as “increased Axin2 expression”.

B3: EpAb2-6: anti-EpCAM (EpEX) neutralizing monoclonal antibody produced in mice by hybridoma; VH SEQ ID NO: 15, VL SEQ ID NO: 16 (antibody, V domains shown)
VH: VKLQESGPELKKPGETVKISCKASGYTFTDYSMHWVKQAPGKGLKWMGWINTETGEPTYADDFKGRFAFSLETSASTAYLQINNLKNEDTATYFCARTAVYWGQGTTVTVSS
VL: DIQMTQSPSSLSASLGERVSLTCRASQEISVSLSWLQQEPDGTIKRLIYATSTLDSGVPKRFSGSRSGSDYSLTISSLESEDFVDYYCLQYASYPWTFGGGTKLEIK
B3: the induction of apoptosis result in data set [1] (SW620 and HCT116 cells, 20 μg/mL EpAb2-6, LGK974 or the combination for 24 hrs) is “could induce apoptosis”. The “antibody binding to EpCAM mutants” value in the data set on EpCAM is reported as “marked reductions in EpAb2-6 binding”. In addition, the “EpEX binding to LRP5 after pre-incubation with antibody” value in the data set with recombinant LRP5 (EpEX-His incubated with antibody overnight) is recorded as “substantially decreased binding”.

The record behind these values is US20250129146A1, “COMBINED CANCER THERAPY WITH AN EPITHELIAL CELL ADHESION MOLECULE (EPCAM) INHIBITOR AND A WNT INHIBITOR” (ACADEMIA SINICA, priority 2021, published 2025).
